Test results as given in CN116410305A (ATTOGEN BIOMEDICAL SUZHOU INC LTD, dated 2023).

Molecular target: T1, 宫颈癌组织/细胞中内源的HPV16 E6蛋白 (HPV16, UniProt P03126 1-158)
T1 construct: Target detected by IHC or ICC in fixed tissue or cells; also called HPV16 E6致癌蛋白; HPV16 E6癌蛋白
Assay: IHC on FFPE cervical cancer tissue array, clone supernatant

T1 sequence (P03126 whole entry): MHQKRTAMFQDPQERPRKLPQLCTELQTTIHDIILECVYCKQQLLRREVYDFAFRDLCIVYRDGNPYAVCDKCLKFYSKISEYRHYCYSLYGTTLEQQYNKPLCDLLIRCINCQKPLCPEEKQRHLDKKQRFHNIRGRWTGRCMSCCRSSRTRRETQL

B1: 抗HPV16 E6单克隆抗体A3E1 (antibody, V domains shown)
VH: QSLEESGGGLVTPGGTLTLTCTASGIDFSANYWIYWVRQTPGKGLEWIASIFTSDGETHYATWAKGRFTISKTSSTTVTLQMTSLTAADTATYFCATGGALWGPGTLVTVSS
VL: DIVMTQTPASVEAAVGGTVTIKCQASEDIENYLAWYQQKPGQPPKRLIYKASTLASGVPSRFKGSGSGTDFTLTISDLECADAATYYCQSNYYNFGSNYGSFAFGGGTEVVVK
notes: Rabbit monoclonal IgG from single B cell cloning, tested as B cell clone supernatant and as recombinant IgG from CHO cells; also called 克隆上清A3E1; 抗体克隆A3E1
binding result: binds
